Experimental data from patent publication WO2006046344A1 (dated 2006).

What was measured:
bovine α form prion = bovine α form prion (bovine, UniProt P10279 102-241)
human α form prion = human α form prion (human, UniProt P04156 90-230)

Row | Binder | Kd (bovine α form prion) [nM] | Kd (human α form prion) [nM]
1 | huPrP-18 (scFv, V domains shown) VH: QVQLVQSGAEVKKPGASVKVSCKASGYTFTSYPIHWVRQAPGQRLEWMGWLNPGTGVTKYSQNFQGRVTLTSDTSANTAYLELSSLRSEDTALYYCTRDPLDSRKNWFDPWGQGTLVTVSS VL: SYVLTQPPSASGTPGQRVTISCSGSNSNIGTNFVYWYQQLPGTAPKLLIYRNNQRPSGVPDRFSGSKSGTSASLAISGLRSEDEADYYCAAWDDSLSGRVFGGGTQLTVLG | 60 | 20
2 | huPrP-39 (scFv, V domains shown) VH: EVQLVQSGGGLVQPGRSLRLSCAASGFTFGDYAMSWVRQAPGKGPEWIATISSSGDILDYADSVRGRFSISRDNAQRSLHLQMTSLRPDDSAIYYCAREYFFSFDVWGRGTTVTVSS VL: QSVLAQPPSLSVSPGQTARITCSGDGVGSGFVSWYQQRPGQSPSVVIYDDAKRPSGIPERFSGSNSGDTATLTISESRAVDEADYYCQTWDSRSPVFGGGTKVTVLG | 29 | 33
3 | boPrP-2 (scFv, V domains shown) VH: QVQLVQSGGGLVQPGRSLRLSCAASGFTFDDYAMHWVRQAPGKGLEWVSGISWNSGSIGYADSVKGRFTISRDNAKNSLYLQMNSLRAEDTALYYCAKGGGSYYYFDYWGQGTLVTVSS VL: QSVLTQPPSVSGAPGQRVSISCTGNRSNIGAGYDVHWYQQVPGMAPKLLIYGNTKRPSGVPDRFSGSKSGTSASLAITGLQAEDEADYYCQSFDNTLSDSRWVFGGGTKLTVLG | 410 | 110
4 | boPrP-15 (scFv) chain 1: QVQLVQSGAEVKKPGASVKVSCKASGYTFTSYGISWVRQAPGQGLEWMGWISAYNGNTNYAQKLQGRVTMTTDTSTSTAYMELRSLRSDDTAVYYCARYGGRIAAASYNWFDPWGQGTLAICPDSACLRVWVSWTVDHLVTVSS chain 2: QSALTQPASVSGSPGQSITISCTGTSSDVGGYNYVSWYQQHPGKAPRLMIYDVSNRPSGVSNRFSGSKSGNTASLTISGLQSEDEADYYCSSYTSSSTLVFGTGTKLTVLG | 4.6 | 7.8
5 | boPrP-20 (scFv, V domains shown) VH: QVQLVQSGGGLVQPGRSLRLSCAASGFTFDDYAMHWVRQAPGKGLEWVSGISWNSGSIGYADSVKGRFTISRDNAKNSLYLQMNSLRAEDTALYYCAKQGDEAAAGTGFDYWGQGTLVTVSS VL: QSVLTQPPSASAAPGQGVTISCSGSSSNIGTNTVAWYQHLPETAPKLLIYHDSQRPSRVPGRVSGSKSGTSASLAISRLQSDDEADYYCATWDDSLNGWVFGGGTKLTVLG |  | 36
